T1: human OX40 (CD134), full length, expressed on cells (activated human T cells); EL4-OX40 and CHO-OX40 … (human, UniProt P43489 29-277)
T1 construct: also called TNFRSF4; surface expressed OX40
T1 sequence: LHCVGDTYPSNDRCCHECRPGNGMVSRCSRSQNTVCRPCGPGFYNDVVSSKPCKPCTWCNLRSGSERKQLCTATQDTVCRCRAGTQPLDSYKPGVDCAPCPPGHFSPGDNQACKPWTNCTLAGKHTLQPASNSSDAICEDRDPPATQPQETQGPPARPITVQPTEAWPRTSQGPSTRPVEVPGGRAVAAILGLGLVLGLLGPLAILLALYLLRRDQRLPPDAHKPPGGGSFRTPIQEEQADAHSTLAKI


Biological target: T1, human OX40 (CD134), full length, …
Assay: flow cytometry titration on activated human T cells, anti-human IgG-PE
Method: Following twenty minute incubation on ice, the cells were washed once and fixed ten minutes with 1% paraformaldehyde. After a final wash the cells were resuspended in staining buffer and the samples were acquired using FACScan or FACS Calibur flow cytometers (Becton Dickinson Biosciences, Palo Alto, Calif.), and the data were analyzed using Cellquest (Becton Dickinson Biosciences) or Flow Jo (TreeStar, Inc., San Carlos, Calif.) software. The activated T cells were also stained with mouse anti-human OX40 antibody L106 (Becton Dickinson), which was directly conjugated to phycoerythrin or whose binding was detected with anti-mouse IgG-PE (Southern Biotechnology Associates.) OX40L Blocking Assays: To determine if the anti-human OX40 antibodies could block OX40L binding to soluble OX40 both ELISA and flow cytometric protocols were used. In the ELISA 96 well Nunc flat bottom plates were coated with recombinant soluble hOX40:hFc at 2 μg/ml in carbonate buffer (pH9.4) for one hour at 37° C. The plates were washed with PBS/0.1% Tween 20 and Superblock (Pierce) was added to the wells to block non-specific binding. The test antibodies were diluted to 1 μg/ml in PBS/Tween and added to the plates. After one hour incubation at 37° C., FLAG tagged recombinant soluble human OX40L (Alexis Biochemicals, San Diego, Calif.) was added to the appropriate wells without washing out the anti-OX40 antibodies. Following one hour incubation, the plates were washed and an anti-FLAG-peroxidase conjugated antibody (Sigma) was added to the wells for one hour at 37° C. The TMB substrate was added, after ten minutes the reaction was stopped with H₂SO₄, and the results were read at 450 nm using a microplate reader. In the flow cytometric assay, human CD4+ T cells were purified and activated with PHA+IL2 for two days. The cells were washed and resuspended in staining buffer and then incubated with increasing amounts of human anti-human OX40 antibodies for twenty minutes on ice, from 0.005-50 μg/ml. Soluble recombinant OX40L-FLAG was then added to the cells. The cells were washed and incubated with anti-FLAG conjugated to PE (Sigma). After another wash, the cells were fixed with 1% paraformaldehyde and analyzed on a FACScan or FACScalibur.

BMAX Geo Mean | Kd | Binder
162 geometric mean fluorescence | 14 nM | 112Y55 human anti-human OX40 monoclonal antibody (hybridoma ATCC No. PTA-7220) (antibody, V domains shown) VH: QITLKESGPTLVKPTQTLTLSCTFSGFSLSTSGVGVGWIRQPPGKALEWLALIHWDDAERYSPSLKSRLTITKDTSKNQVVLTMTNMDLVDTATYYCAHTRGAFDIWGQGTMVTVSS VL: EIVLTQSPGTLSLSPGERAILSCRASQSVSSSFLAWYQQKPGQAPRLLIYGAFSRATGIPDRFSGSGSGTDFTLTISRLEPEDFAVYYCQQYDSSRTFGQGTKVEIK
171 geometric mean fluorescence | 25 nM | 112Y131 human anti-human OX40 monoclonal antibody (hybridoma ATCC No. PTA-7218) (antibody, V domains shown) VH: QITLKESGPTLVKPTQTLTLTCTFSGFSLSTSGVGVGWIRQPPGKALEWLALIYWDDHSPYSPSLKSRLTITKDTSKNQVVLTMTNMDPVDTATYYCARTRGAFDIWGQGTMVTVSS VL: EIVLTQSPATLSLSPGERATLSCRASQGVSSYLAWYQQKPGQAPRLLIYDASNRATGIPARFSGSGPGTDFTLTISSLEPEDFAVYYCQQRSNWHPTFGQGTKVEIK
